# Laboratory results as given in US20070275898.
# Target: β subunit of DNA polymerase III of Escherichia coli (UniProt P0A988)
# Sequence (P0A988 whole entry): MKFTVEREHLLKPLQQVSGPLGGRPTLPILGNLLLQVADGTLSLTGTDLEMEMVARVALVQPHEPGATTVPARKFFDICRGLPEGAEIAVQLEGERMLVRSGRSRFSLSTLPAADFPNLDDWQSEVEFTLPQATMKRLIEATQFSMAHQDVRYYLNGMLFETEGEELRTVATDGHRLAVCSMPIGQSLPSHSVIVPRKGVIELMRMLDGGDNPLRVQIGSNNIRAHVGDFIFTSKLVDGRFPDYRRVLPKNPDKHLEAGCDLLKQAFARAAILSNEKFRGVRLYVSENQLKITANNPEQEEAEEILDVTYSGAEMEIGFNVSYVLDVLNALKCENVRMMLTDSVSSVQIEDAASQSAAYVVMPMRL
substance,measurement,value
Pol IVD5 mutant of Pol IV lacking the 5 C-terminal amino-acids,growth rate (OD 600 nm) of E. coli on IPTG-induced expression,a clear growth inhibition was observed for the culture expressing the wild type Pol IV protein compared to the one expressing the mutant protein
